These results are taken from article PMC9979629 (Antiviral Research, 2023).

Changes are numbered by the printed parent chain.

This assay concerns the target His-tagged wild-type SARS-CoV-2 RBD (SARS-CoV-2, UniProt P0DTC2). The assay can be described thus: ELISA. On the technique in general: In an ELISA, binding on a coated surface is turned into a signal by an enzyme label.

B1: K102.1 (antibody, V domains shown)
VH: EVQLLESGGGLVQPGGSLRLSCAASGFTFSDYAMSWVRQAPGKGLEWVSWIYSGSGNKYYADSVKGRFTISRDNSKNTLYLQMNSLRAEDTAVYYCARFPIARTSNSQSSYDGMDVWGQGTLVTVSS
VL: QSVLTQPPSASGTPGQRVTISCSGSSSNIGSNAVSWYQQLPGTAPKLLIYADNKRPSGVPDRFSGSKSGTSASLAISGLRSEDEADYYCGAWDSSLNAYVFGGGTKLTVL
On to B1, for which the binding result is listed as “binds”.

B2: K102.2 (antibody, V domains shown)
VH: EVQVLESGGGLVQPGGSLRLSCAASGFTFSSYDMSWVRQAPGKGLEWVSGISYSGGSTYYADSVKGRFTISRDNSKNTLYLQMNSLRAEDTAVYYCARDVNFVPLVTFDYWGQGTLVTVSS
VL: B1 VL with I20L, S23T, A33S, S35T, A51D, K54Q, A91T, S94Y, N97S
B2: the binding result is given as “binds”.
